The experiment deals with hamster JUNO (hamster). Put plainly: live imaging-based adhesion molecule (LIAM) assay; BHK cells, non-inducible expression (cytomegalovirus promoter); separately transfected cells mixed in equal amounts 4 h after transfection, incubated 20 h, imaged every 6 min for 12 h at 40x, 37 °C, 5% CO2; read-outs: accumulation at the cell interface and translocation to the opposite cell, % of contacting cell pairs.

B1: mouse IZUMO1-Venus (natural protein)
chain: CIKCDQFVTDALKTFENTYLNDHLPHDIHKNVMRMVNHEVSSFGVVTSAEDSYLGAVDENTLEQATWSFLKDLKRITDSDLKGELFIKELLWMLRHQKDIFNNLARQFQKEVLCPNKCGVMSQTLIWCLKCEKQLHICRKSLDCGERHIEVHRSEDLVLDCLLSWHRASKGLTDYSFYRVWENSSETLIAKGKEPYLTKSMVGPEDAGNYRCVLDTINQGHATVIRYDVTVLPPKHSEENQPPNIITQEEHETPVHVTPQTPPGQEPESELYPELHPELYPELIPTVAQNPEKKMKTRLLILLTLGFVVLVASIIISVLHFRKVSAKLKNASDEVKPTASGSKSDQSLSQQMGLKKASQADFNSDYSGDKSEATEN
In the case of B1, the IZUMO1 accumulation (% of contacting cell pairs) stood at 78%.
